Reference: publication PMC3750073 (Biochemistry, 2013)

Tests used:
[1] = tested on: Nc1ccn([C@@H]2O[C@H](COP(=O)(O)O)[C@@H](O)[C@H]2O)c(=O)n1; test: purified protein; settings: pH 7.5; 37.0 °C
[2] = tested on: Nc1ccn([C@H]2C[C@H](O)[C@@H](COP(=O)(O)O)O2)c(=O)n1; test: purified protein; settings: pH 7.5; 37.0 °C
crystal structure = molecular target: the molecule itself; test: crystal structure

(Streptomyces rimofaciens) was tested, and the Km [1] was 3.8 (0.5) mM, the kcat/Km [1] was 5.2 M⁻¹ s⁻¹ and the Km [2] was 5.4 (0.8) mM. For the same molecule, the kcat/Km [2] was 1.1 M⁻¹ s⁻¹.

B1: SeMet MilB (selenomethionine-containing MilB, CMP hydrolase of Streptomyces rimofaciens ZJU5119) (enzyme, UniProt B4Y381 1-170, looked up)
chain: MTTTPKPRTAPAVGSVFLGGPFRQLVDPRTGVMSSGDQNVFSRLIEHFESRGTTVYNAHRREAWGAEFLSPAEATRLDHDEIKAADVFVAFPGVPASPGTHVEIGWASGMGKPMVLLLERDEDYAFLVTGLESQANVEILRFSGTEEIVERLDGAVARVLGRAGEPTVIG
modifications: selenomethionine (SeMet-containing protein)
With B1 the “stoichiometry N” value (crystal structure) was 2.
